Measured values reported in the supplement of paper PMC12042874.
± gives the uncertainty stated by the source.

Experiment: amyloid nucleation score (Sup35N fusion, yeast selection) (log enrichment); library NNK1; higher = more nucleation; inactive = no reads after selection
How it was run: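 In psi-negative yeast, Sup35N fusions carrying peptides of 20 random codons were induced with 100 μM copper sulfate for 24 hours. The cells then grew 7 days at 30°C on medium lacking adenine and uracil, and plasmid inserts from input and output were Illumina-sequenced, excluding sequences with under 100 input reads. Nucleation score is the DiMSum log enrichment of output over input reads, centred on the mode score of non-aggregating sequences.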

Substance	amyloid nucleation score
ISNIF	1.67 ± 0.45
ISNMETGHLEYSLRLAPKYC	-0.658 ± 0.82
ISQYILSHLCQFIVSIGLAT	-0.454 ± 0.88
ISRDNNQTGLMGGLERRTES	0.533 ± 0.65
ISRGDVGVKESSGCNCVLPH	-0.587 ± 1.3
ISRGYHRYLFSKSNECGRLN	inactive
ISRSNTLYAIFCARPAKVSL	-0.235 ± 0.6
ISRVIFLR	1.41 ± 0.78
ISTAVAIAGQQARNWGAHLR	-0.196 ± 0.46
ISTFLRFSQSDEQYYPTE	0.496 ± 0.48
ISWRNYWY	1.01 ± 0.22
ISWVSPDLVLSYPVYQPDGL	1.93 ± 0.23
ITGFAPVRVVCEYLS	0.182 ± 0.6
ITMSYMSAKCVNWVVWACRL	0.286 ± 0.31
ITMVISLCALFMSRSIIFKG	-0.154 ± 1
ITMYANMNSGQFTMLESMPD	-0.303 ± 0.26
ITVLSS	1.47 ± 0.46
ITVRAISMWWRDSS	0.263 ± 0.4
IVDSHVSIATYRLEELRRTL	2.11 ± 0.27
IVFFWMMLVGLNRLGVNRVG	-0.846 ± 1.7
IVGSVVRGMGLVIIRSTCFW	3.15 ± 0.18
IVKGLSCKIDWLCASMHWMR	0.053 ± 0.36

Substance	amyloid nucleation score
IVNRHEL	0.63 ± 0.9
IVRDFMVLINR	-0.911 ± 1.3
IVRIESVEFSDYADFAFEVR	0.67 ± 0.59
IVRQYANLGRCCRTGVVYFQ	0.386 ± 0.63
IVSNDKWHMWLNRL	-0.022 ± 0.24
IVVGRGKQAIASMG	-0.432 ± 0.89
IVVNLGWFQIGIYLPARSDT	-1.24 ± 1.9
IVYSLLYVRMSSNSMWVSV	0.958 ± 0.9
IWDCLFPSSSAMSYPVDPKA	0.547 ± 0.42
IWGNVSLIRGFCPVKLWSQR	-0.082 ± 0.46
IWLSLYIAFYGCLHGWFPSQ	0.645 ± 0.6
IWRLWWAKGPGSRLLRCRLY	-0.167 ± 0.42
IWTKSCDCVCSCGGYQGCYR	-0.038 ± 0.19
IWTNTLNFTARFANVLAGTG	-0.705 ± 1.2
IWVFMVVIMC	1.07 ± 0.79
IWYRQVCANLLSN	inactive
IYFLR	-0.103 ± 0.42
IYFVIGYVNVCWGSATEDMT	5.46 ± 0.084
IYGELLHLWLISEFCDVRNC	0.788 ± 0.79
IYIMKHASSSMNGVSVQDFM	0.695 ± 0.67
IYMVGAEPVRERDIVFVPTL	1.24 ± 0.98
IYMVSC	0.077 ± 0.27

Substance	amyloid nucleation score
IYNIVGSLMSSAVFPGQSIS	-1.38 ± 1.2
IYNLDWSF	-0.99 ± 1.3
IYPCICSRNFDPKLYKVNTR	0.605 ± 0.66
IYQQIYN	-0.807 ± 2.4
IYRFSCETHIFQYSRQVLFG	0.786 ± 0.63
IYRMRDNMNSRLRVYFNRVF	inactive
IYTDSVGLFCSYADMPSDRV	0.372 ± 1.4
IYTLGKKGMNHHDVGQWLFT	1.55 ± 0.5
IYYRTMYYMVVSSIN	0.394 ± 0.65
KACDRFNLTYKTVSVRMGDC	0.39 ± 0.28
KAFNVFER	0.225 ± 0.53
KAMLNNKWHLCSHVRTDHAV	0.172 ± 0.32
KAPKYRDRRVGVNVKYWYMP	0.058 ± 0.66
KAPNRE	-0.063 ± 0.66
KAVYLRVRGTHCVNNVALWK	3.43 ± 0.18
KAYRV	-0.633 ± 0.39
KCAWNQVNDSNLVAYRASC	5.13 ± 0.097
KCLTFHVSNVFITANPLCLL	5.936 ± 0.054
KCWPLLRITSVCVFAFTGER	0.937 ± 0.58
KEGRPQSTLCNVVRGFREQY	-0.565 ± 0.7
KENRFISQSDTALYSIKKQH	0.549 ± 1
KETSVSLHEDGIYCGFITSN	0.187 ± 0.28

Substance	amyloid nucleation score
KFRESFLT	-1.32 ± 0.94
KGDNVEIMQTFDKSCLDIGA	inactive
KGDVPGYARCEVKTVRTFWM	0.231 ± 0.41
KGFLRFG	0.333 ± 0.38
KGKAAT	-0.534 ± 0.87
KGLCDNVMDLVRLKGGSEAG	0.443 ± 0.42
KGLEPLCLRSFFLWRERFRD	-0.686 ± 0.49
KGLGRF	-0.788 ± 0.74
KGLLTGSCVDSS	-0.015 ± 0.51
KGWLKTGVYGHVSFVGNIME	0.467 ± 0.75
KHCTRFRVRRMYYDVTKILL	inactive
KHSGFQTCVNYLD	-0.194 ± 0.42
KIGLPGLCVW	0.063 ± 0.54
KIGWL	-0.555 ± 0.58
KKGVIGKG	-2.31 ± 1.6
KKLVA	0.286 ± 0.43
KKPCVTGYRKNRWEELEP	-0.393 ± 0.42
KKPQSGSCTRLSSESYKSVY	0.464 ± 0.82
KKRPPAPSMEVRLGARMVAG	0.324 ± 1
KLGTPLRQSDVS	-0.461 ± 0.59
KLIRYYRFACVMSFRVFYSF	inactive
